# Columns and labels:
# [1] = tested on: Insect-expressed epitope-tagged human phosphodiester α-GlcNAcase lacking the pro-sequence
# [2] = tested on: CHO-expressed epitope-tagged, soluble human phosphodiester α-GlcNAcase
substance,measurement,setting,value
Furin,Western blot of cleavage; UCE activity,[1],the insect-derived UCE is not cleaved by furin as shown by the single UCE form
same,"UCE activity, % increase relative to the minus Furin samples",[2],up to 130% increase in activity
same,Western blot of cleavage (pro-UCE to mature UCE),[2],the CHO-derived UCE is sensitive to furin cleavage as shown by the progressive conversion of the pro-UCE to the mature form
